Results: patent US20250043302A1, “MUTATED HYDROXYPHENYLPYRUVATE DIOXYGENASE POLYPEPTIDE, AND CODING GENE AND USE THEREOF” (BEIJING DABEINONG BIOTECHNOLOGY CO., LTD., priority 2021, published 2025)

Assays:
Type in all cases: in vivo
[1] = system: Arabidopsis thaliana T1 plants; test: Topramezone tolerance of transgenic Arabidopsis thaliana T1 plants (spray, bleached leaf area grade, damage score); details: Table 10; for Classification and statistics of the grade of pesticide damage Grade 0: number of plants at grade 0; for Classification and statistics of the grade of pesticide damage Grade 1: number of plants at grade 1; for Classification and statistics of the grade of pesticide damage Grade 2: number of plants at grade 2; for Classification and statistics of the grade of pesticide damage Grade 3: number of plants at grade 3; for Scores: pesticide damage score
Outline: (§1)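 T1 transformants selected by glufosinate; 18-day-old plants, with empty-vector and wild-type controls, sprayed with topramezone (25–200 g ai/ha), isoxaflutole (35–280 g ai/ha) or mesotrione (52.5–420 g ai/ha), water as 0×. Bleached leaf area fraction scored at 7 DAT as grades 0–3.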

[2] = system: Arabidopsis thaliana T1 plants; test: Mesotrione tolerance of transgenic Arabidopsis thaliana T1 plants (spray, bleached leaf area grade, damage score); design: Scores: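 damage score 0-100 computed as Σ(N×S)/(T×M)×100 over grades 0-3 with higher meaning more damage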; details: Table 12; for Classification and statistics of the grade of pesticide damage Grade 0: number of plants at grade 0; for Classification and statistics of the grade of pesticide damage Grade 1: number of plants at grade 1; for Classification and statistics of the grade of pesticide damage Grade 2: number of plants at grade 2; for Classification and statistics of the grade of pesticide damage Grade 3: number of plants at grade 3; for Scores: pesticide damage score
Outline: as §1

[3] = system: Arabidopsis thaliana T1 plants; test: Isoxaflutole tolerance of transgenic Arabidopsis thaliana T1 plants (spray, bleached leaf area grade, damage score); details: Table 11; for Classification and statistics of the grade of pesticide damage Grade 0: number of plants at grade 0; for Classification and statistics of the grade of pesticide damage Grade 1: number of plants at grade 1; for Classification and statistics of the grade of pesticide damage Grade 2: number of plants at grade 2; for Classification and statistics of the grade of pesticide damage Grade 3: number of plants at grade 3; for Scores: pesticide damage score;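 on Scores: Weighted damage index from 0 to 100 where higher means more damage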
Outline: as §1

B1: HPPDm-7-02: nucleotide sequence encoding AsHPPDm-A107-K351N-F372A-F383W with mutated C-terminal; vector DBN11788 (nucleic acid)
DNA: ATGCCACCTACTCCAGCTACAGCTACTGGTGCTGCTGCTGCTGCCGTTACTCCTGAGCACGCTGCCAGGTCATTCCCCAGGGTGGTTCGCGTGAACCCCAGATCTGATAGGTTCCCAGTTCTGAGCTTCCACCATGTTGAGCTGTGGTGCGCTGATGCTGCTTCTGCTGCTGGCAGGTTCTCTTTCGCTCTTGGTGCTCCACTCGCTGCTAGATCTGATCTGTCTACAGGAAATAGCGCTCATGCCTCACTCCTGCTTCGCTCAGGTGCTTTGGCCTTCCTCTTCACCGCTCCATATGCTCCCCCACCTCAGGAGGCTACTGCTGCTGCTACAGCCTCCATTCCAAGCTTCTCAGCTGATGCCGCTAGAACCTTCGCTGCTGCTCATGGACTTGCCGTGAGGTCTGTTGGTGTTCGCGTGGCTGATGCTGCTGAGGCTTTCAGAGTTTCCGTTGCCGGCGGAGCTAGGCCAGCTTTCGCTCCTGCTGATTTGGGACATGGTTTCGGCCTGGCTGAGGTTGAGCTTTACGGTGACGTGGTTCTCCGCTTCGTGTCTTACCCAGATGAGACTGACCTGCCTTTCCTTCCCGGCTTCGAGAGAGTTTCCTCTCCTGGTGCCGTGGATTACGGCCTGACAAGGTTCGACCACGTGGTTGGAAACGTTCCCGAGATGGCTCCAGTGATCGATTACATGAAGGGCTTCCTTGGATTCCATGAGTTCGCCGAGTTCACTGCTGAGGACGTGGGAACCACTGAGTCCGGTTTGAACTCTGTGGTTCTCGCCAACAATTCTGAGGCTGTTTTGCTCCCTCTGAATGAGCCTGTGCATGGAACCAAGAGGAGAAGCCAGATTCAAACTTACCTGGAGTACCACGGTGGCCCTGGAGTTCAGCATATCGCCCTTGCTTCTAATGATGTGTTGCGCACACTCAGAGAGATGCGCGCCAGAACCCCCATGGGAGGTTTCGAGTTCATGGCCCCACCACAGGCTAAGTACTACGAGGGCGTTAGAAGGATTGCTGGAGACGTGTTGAGCGAGGAGCAGATCAATGAGTGCCAAGAGCTGGGTGTTCTTGTGGATAGGGATGACCAGGGCGTTCTGCTTCAAATTGCCACTAAGCCAGTGGGCGACCGCCCTACATTCTGGCTTGAGATGATTCAAAGAATCGGCTGCATGGAGAAGGATGAGGTTGGACAGGAGTACCAAAAGGGCGGATGCGGTGGCTTCGGAAAGGGTAACTTCAGCGAGTTGTTCAAGTCAATCGAGGAGTATGAGAAGACCTTGGAGGCCAAGCAGCTCGTGGGTTGA
modifications: mutated C-terminus; HPPDm-7-02 Nucleotide Sequence
notes: vector DBN11788
Resistance evaluation ([1]; topramezone 100 g ai/ha (4×)): Highly resistant
Classification and statistics of the grade of pesticide damage Grade 0 ([1]; topramezone 100 g ai/ha (4×)): 16
Classification and statistics of the grade of pesticide damage Grade 1 ([1]; topramezone 100 g ai/ha (4×)): 0
Classification and statistics of the grade of pesticide damage Grade 2 ([1]; topramezone 100 g ai/ha (4×)): 0
Classification and statistics of the grade of pesticide damage Grade 3 ([1]; topramezone 100 g ai/ha (4×)): 0
Scores ([1]; topramezone 100 g ai/ha (4×)): 0
Resistance evaluation ([1]; topramezone 200 g ai/ha (8×)): Highly resistant
Classification and statistics of the grade of pesticide damage Grade 0 ([1]; topramezone 200 g ai/ha (8×)): 16
Classification and statistics of the grade of pesticide damage Grade 1 ([1]; topramezone 200 g ai/ha (8×)): 0
Classification and statistics of the grade of pesticide damage Grade 2 ([1]; topramezone 200 g ai/ha (8×)): 0
Classification and statistics of the grade of pesticide damage Grade 3 ([1]; topramezone 200 g ai/ha (8×)): 0
Scores ([1]; topramezone 200 g ai/ha (8×)): 0
Resistance evaluation ([2]; mesotrione 210 g ai/ha (2×)): Highly resistant
Classification and statistics of the grade of pesticide damage Grade 0 ([2]; mesotrione 210 g ai/ha (2×)): 16
Classification and statistics of the grade of pesticide damage Grade 1 ([2]; mesotrione 210 g ai/ha (2×)): 0
Classification and statistics of the grade of pesticide damage Grade 2 ([2]; mesotrione 210 g ai/ha (2×)): 0
Classification and statistics of the grade of pesticide damage Grade 3 ([2]; mesotrione 210 g ai/ha (2×)): 0
Scores ([2]; mesotrione 210 g ai/ha (2×)): 0
Resistance evaluation ([2]; mesotrione 420 g ai/ha (4×)): Highly resistant
Classification and statistics of the grade of pesticide damage Grade 0 ([2]; mesotrione 420 g ai/ha (4×)): 15
Classification and statistics of the grade of pesticide damage Grade 1 ([2]; mesotrione 420 g ai/ha (4×)): 1
Classification and statistics of the grade of pesticide damage Grade 2 ([2]; mesotrione 420 g ai/ha (4×)): 0
Classification and statistics of the grade of pesticide damage Grade 3 ([2]; mesotrione 420 g ai/ha (4×)): 0
Scores ([2]; mesotrione 420 g ai/ha (4×)): 2
Resistance evaluation ([3]; isoxaflutole 140 g ai/ha (2×)): Highly resistant
Classification and statistics of the grade of pesticide damage Grade 0 ([3]; isoxaflutole 140 g ai/ha (2×)): 16
Classification and statistics of the grade of pesticide damage Grade 1 ([3]; isoxaflutole 140 g ai/ha (2×)): 0
Classification and statistics of the grade of pesticide damage Grade 2 ([3]; isoxaflutole 140 g ai/ha (2×)): 0
Classification and statistics of the grade of pesticide damage Grade 3 ([3]; isoxaflutole 140 g ai/ha (2×)): 0
Scores ([3]; isoxaflutole 140 g ai/ha (2×)): 0
Resistance evaluation ([3]; isoxaflutole 280 g ai/ha (4×)): Highly resistant
Classification and statistics of the grade of pesticide damage Grade 0 ([3]; isoxaflutole 280 g ai/ha (4×)): 16
Classification and statistics of the grade of pesticide damage Grade 1 ([3]; isoxaflutole 280 g ai/ha (4×)): 0
Classification and statistics of the grade of pesticide damage Grade 2 ([3]; isoxaflutole 280 g ai/ha (4×)): 0
Classification and statistics of the grade of pesticide damage Grade 3 ([3]; isoxaflutole 280 g ai/ha (4×)): 0
Scores ([3]; isoxaflutole 280 g ai/ha (4×)): 0
